Consider 1 molecule from patent US20040161798A1.

Test [1] concerns the target T1, His6Gal80, P04387.
T1 chain: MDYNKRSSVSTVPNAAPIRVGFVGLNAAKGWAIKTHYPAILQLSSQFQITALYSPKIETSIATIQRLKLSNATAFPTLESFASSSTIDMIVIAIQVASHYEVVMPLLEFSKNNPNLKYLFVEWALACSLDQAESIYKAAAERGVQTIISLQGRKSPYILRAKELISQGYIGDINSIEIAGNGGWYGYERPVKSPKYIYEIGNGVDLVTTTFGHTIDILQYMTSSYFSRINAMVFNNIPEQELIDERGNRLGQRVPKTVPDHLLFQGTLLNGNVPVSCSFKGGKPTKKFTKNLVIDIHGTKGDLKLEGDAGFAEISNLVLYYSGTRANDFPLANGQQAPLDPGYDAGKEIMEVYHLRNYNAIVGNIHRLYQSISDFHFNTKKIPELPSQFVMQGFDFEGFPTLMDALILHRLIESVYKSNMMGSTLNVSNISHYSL
In words: fluorescence polarization titration of fluorescein-labeled peptide in solution. For orientation: Polarisation of emitted light reports the rotation of a fluorescent probe.

For test [2], the target named is T1, His6Gal80, P04387. In words: fluorescence polarization in solution: fluorescein-labelled peptide titrated with Gal80 protein.
The target of test [3] is T1, His6Gal80, P04387. Nature of the test: fluorescence polarization after adding excess unlabeled peptide.
In test [4] the target is T1, His6Gal80, P04387. Nature of the test: capture of Gal80 by 2 mg of TentaGel-Gal80bp at the higher protein concentrations, Western blot. On the technique in general: Immunoblotting shows a protein as a band on a membrane.
The target of test [5] is T1, His6Gal80, P04387. In words: dilution assay on TentaGel beads, Western blot.
Test [6] has as its target T1, His6Gal80, P04387. In words: capture of dilute Gal80 by TentaGel-Gal80bp, Western blot against a calibration blot.
Test [7] concerns the target T1, His6Gal80, P04387. Nature of the test: capture of dilute Gal80 (0.4 nM) by TentaGel-Gal80bp, Western blot.

In general, Kd refers to the concentration at which binding is half-saturated. Read a high Kd as weaker binding. Turning to YDQDMQNNTFDDLFWKEGHR (modifications not checked) [Gal80bp], the Kd in test [1] was 300 nM; in test [2] it was 200 nM; in test [6] it was less than 0.4 nM. The half-life of the complex in solution in test [3] was less than 10 s. Also, the amount of protein retained on the beads in test [4] is 50 ng. The molecule further registered a bound protein left on the beads (percent of the original level) in test [5] of 50%. This molecule had a percent of the protein bound to the beads in test [7] of 100%.
